B1: Unconventional myosin-VI (Homo sapiens), Q9UM54-1 (parent)
chain: MEDGKPVWAPHPTDGFQMGNIVDIGPDSLTIEPLNQKGKTFLALINQVFPAEEDSKKDVEDNCSLMYLNEATLLHNIKVRYSKDRIYTYVANILIAVNPYFDIPKIYSSEAIKSYQGKSLGTRPPHVFAIADKAFRDMKVLKMSQSIIVSGESGAGKTENTKFVLRYLTESYGTGQDIDDRIVEANPLLEAFGNAKTVRNNNSSRFGKFVEIHFNEKSSVVGGFVSHYLLEKSRICVQGKEERNYHIFYRLCAGASEDIREKLHLSSPDNFRYLNRGCTRYFANKETDKQILQNRKSPEYLKAGSMKDPLLDDHGDFIRMCTAMKKIGLDDEEKLDLFRVVAGVLHLGNIDFEEAGSTSGGCNLKNKSAQSLEYCAELLGLDQDDLRVSLTTRVMLTTAGGTKGTVIKVPLKVEQANNARDALAKTVYSHLFDHVVNRVNQCFPFETSSYFIGVLDIAGFEYFEHNSFEQFCINYCNEKLQQFFNERILKEEQELYQKEGLGVNEVHYVDNQDCIDLIEAKLVGILDILDEENRLPQPSDQHFTSAVHQKHKDHFRLTIPRKSKLAVHRNIRDDEGFIIRHFAGAVCYETTQFVEKNNDALHMSLESLICESRDKFIRELFESSTNNNKDTKQKAGKLSFISVGNKFKTQLNLLLDKLRSTGASFIRCIKPNLKMTSHHFEGAQILSQLQCSGMVSVLDLMQGGYPSRASFHELYNMYKKYMPDKLARLDPRLFCKALFKALGLNENDYKFGLTKVFFRPGKFAEFDQIMKSDPDHLAELVKRVNHWLTCSRWKKVQWCSLSVIKLKNKIKYRAEACIKMQKTIRMWLCKRRHKPRIDGLVKVGTLKKRLDKFNEVVSVLKDGKPEMNKQIKNLEISIDTLMAKIKSTMMTQEQIQKEYDALVKSSEELLSALQKKKQQEEEAERLRRIQEEMEKERKRREEDEKRRRKEEEERRMKLEMEAKRKQEEEERKKREDDEKRIQAEVEAQLARQKEEESQQQAVLEQERRDRELALRIAQSEAELISDEAQADLALRRNDGTRPKMTPEQMAKEMSEFLSRGPAVLATKAAAGTKKYDLSKWKYAELRDTINTSCDIELLAACREEFHRRLKVYHAWKSKNKKRNTETEQRAPKSVTDYDFAPFLNNSPQQNPAAQIPARQREIEMNRQQRFFRIPFIRPADQYKDPQSKKKGWWYAHFDGPWIARQMELHPDKPPILLVAGKDDMEMCELNLEETGLTRKRGAEILPRQFEEIWERCGGIQYLQNAIESRQARPTYATAMLQSLLK
partner: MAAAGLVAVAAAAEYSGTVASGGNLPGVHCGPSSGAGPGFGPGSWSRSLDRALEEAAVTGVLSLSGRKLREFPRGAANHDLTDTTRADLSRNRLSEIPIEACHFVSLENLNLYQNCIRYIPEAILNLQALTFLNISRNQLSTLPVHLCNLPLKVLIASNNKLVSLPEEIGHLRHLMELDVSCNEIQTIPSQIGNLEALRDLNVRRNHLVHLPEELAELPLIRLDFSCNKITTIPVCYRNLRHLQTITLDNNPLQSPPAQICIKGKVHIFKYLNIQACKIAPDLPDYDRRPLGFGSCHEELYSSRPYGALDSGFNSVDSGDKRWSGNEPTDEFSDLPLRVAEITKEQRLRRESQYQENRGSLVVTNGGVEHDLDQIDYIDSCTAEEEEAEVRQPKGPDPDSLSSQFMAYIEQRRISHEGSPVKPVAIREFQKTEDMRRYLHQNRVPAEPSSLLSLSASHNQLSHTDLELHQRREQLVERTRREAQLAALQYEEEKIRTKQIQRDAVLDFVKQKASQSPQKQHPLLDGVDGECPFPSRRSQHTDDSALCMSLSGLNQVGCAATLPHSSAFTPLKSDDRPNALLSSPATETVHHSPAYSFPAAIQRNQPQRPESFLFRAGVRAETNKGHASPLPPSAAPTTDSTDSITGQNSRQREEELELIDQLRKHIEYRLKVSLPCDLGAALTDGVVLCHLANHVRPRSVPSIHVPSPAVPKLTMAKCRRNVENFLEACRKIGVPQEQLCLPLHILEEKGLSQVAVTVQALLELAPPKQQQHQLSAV

Variants of: B1
Conditions: with lrch3_human LRCH3, Q96II8

effect of a mutation on the interaction	Variant
disrupting interaction strength	R1107A;R1108A;L1109A
disrupting interaction strength	W1192L

Reference: IntAct's records for PubMed 29467281
